± gives the uncertainty stated by the source.

The data set is described as follows: abundance fitness (aPCA) (normalised: wild type 0, dead -1); higher = more abundant; growth selection in yeast, the domain comes from the species named. The conditions noted are these: Homo sapiens.
The substance “Scaffold attachment factor B1 G70R, Q15424” displayed an abundance fitness of -0.196 ± 0.053. The result for “Scaffold attachment factor B1 G70S, Q15424” reads -0.197 ± 0.057; that for “Scaffold attachment factor B1 G70T, Q15424”, -0.408 ± 0.092. The result for “Scaffold attachment factor B1 G70W, Q15424” reads -0.474 ± 0.055.

The substance “Scaffold attachment factor B1 G70Y, Q15424” came in with an abundance fitness of -0.483 ± 0.1.

“Scaffold attachment factor B1 I37C, Q15424” came in with an abundance fitness of -0.281 ± 0.072. Next, “Scaffold attachment factor B1 I37D, Q15424”: -0.175 ± 0.075; “Scaffold attachment factor B1 I37G, Q15424”: -0.028 ± 0.05.

In turn, “Scaffold attachment factor B1 I37H, Q15424” registered an abundance fitness of -0.186 ± 0.085. Regarding “Scaffold attachment factor B1 I37K, Q15424”, the abundance fitness is -0.103 ± 0.076. The result for “Scaffold attachment factor B1 I37L, Q15424” reads -0.124 ± 0.056; that for “Scaffold attachment factor B1 I37M, Q15424”, -0.057 ± 0.061; that for “Scaffold attachment factor B1 I37N, Q15424”, -0.25 ± 0.078. The result for “Scaffold attachment factor B1 I37R, Q15424” reads -0.04 ± 0.054; that for “Scaffold attachment factor B1 I37S, Q15424”, -0.17 ± 0.054; that for “Scaffold attachment factor B1 I37V, Q15424”, -0.15 ± 0.06.

Substance “Scaffold attachment factor B1 I37Y, Q15424” had an abundance fitness of -0.231 ± 0.059. The result for “Scaffold attachment factor B1 I65A, Q15424” reads -0.596 ± 0.069; that for “Scaffold attachment factor B1 I65C, Q15424”, -0.141 ± 0.087. The result for “Scaffold attachment factor B1 I65D, Q15424” reads -0.706 ± 0.077; that for “Scaffold attachment factor B1 I65E, Q15424”, -0.497 ± 0.085; that for “Scaffold attachment factor B1 I65F, Q15424”, -0.466 ± 0.099.

With “Scaffold attachment factor B1 I65G, Q15424”, the abundance fitness was -0.564 ± 0.057.

As to “Scaffold attachment factor B1 I65H, Q15424”, the abundance fitness is -0.917 ± 0.14. Next, “Scaffold attachment factor B1 I65K, Q15424”: -0.434 ± 0.061. The substance “Scaffold attachment factor B1 I65L, Q15424” displayed an abundance fitness of -0.143 ± 0.049. Next, “Scaffold attachment factor B1 I65M, Q15424”: -0.312 ± 0.069; “Scaffold attachment factor B1 I65N, Q15424”: -0.598 ± 0.089. The result for “Scaffold attachment factor B1 I65P, Q15424” reads -0.559 ± 0.051; that for “Scaffold attachment factor B1 I65R, Q15424”, -0.287 ± 0.045; that for “Scaffold attachment factor B1 I65S, Q15424”, -0.577 ± 0.058. The result for “Scaffold attachment factor B1 I65W, Q15424” reads -0.457 ± 0.051. Take “Scaffold attachment factor B1 I65Y, Q15424”: the abundance fitness is -0.535 ± 0.14. “Scaffold attachment factor B1 I75A, Q15424” came in with an abundance fitness of -0.304 ± 0.071. Substance “Scaffold attachment factor B1 I75C, Q15424” displayed an abundance fitness of -0.28 ± 0.086. Substance “Scaffold attachment factor B1 I75D, Q15424” registered an abundance fitness of -0.449 ± 0.11. The result for “Scaffold attachment factor B1 I75E, Q15424” reads -0.459 ± 0.09; that for “Scaffold attachment factor B1 I75F, Q15424”, -0.371 ± 0.095.

As for “Scaffold attachment factor B1 I75G, Q15424”, the abundance fitness is -0.264 ± 0.057. The result for “Scaffold attachment factor B1 I75H, Q15424” reads -0.543 ± 0.13; that for “Scaffold attachment factor B1 I75K, Q15424”, -0.253 ± 0.06; that for “Scaffold attachment factor B1 I75L, Q15424”, -0.099 ± 0.054. The substance “Scaffold attachment factor B1 I75M, Q15424” displayed an abundance fitness of -0.19 ± 0.065. The result for “Scaffold attachment factor B1 I75N, Q15424” reads -0.219 ± 0.058; that for “Scaffold attachment factor B1 I75P, Q15424”, -0.31 ± 0.084. Next, “Scaffold attachment factor B1 I75Q, Q15424”: -0.311 ± 0.071. Next, “Scaffold attachment factor B1 I75R, Q15424”: -0.285 ± 0.057.

“Scaffold attachment factor B1 I75S, Q15424” gave an abundance fitness of -0.257 ± 0.056. The result for “Scaffold attachment factor B1 I75T, Q15424” reads -0.194 ± 0.064; that for “Scaffold attachment factor B1 I75V, Q15424”, -0.113 ± 0.049. The result for “Scaffold attachment factor B1 I77A, Q15424” reads -0.157 ± 0.062; that for “Scaffold attachment factor B1 I77C, Q15424”, -0.187 ± 0.061; that for “Scaffold attachment factor B1 I77D, Q15424”, -0.212 ± 0.071.

Turning to “Scaffold attachment factor B1 I77E, Q15424”, the abundance fitness was -0.102 ± 0.092.

Turning to “Scaffold attachment factor B1 I77F, Q15424”, the abundance fitness is -0.076 ± 0.058. The substance “Scaffold attachment factor B1 I77G, Q15424” yielded an abundance fitness of -0.195 ± 0.064. The result for “Scaffold attachment factor B1 I77H, Q15424” reads -0.163 ± 0.056; that for “Scaffold attachment factor B1 I77K, Q15424”, -0.136 ± 0.073; that for “Scaffold attachment factor B1 I77L, Q15424”, -0.227 ± 0.064. Next, “Scaffold attachment factor B1 I77M, Q15424”: -0.305 ± 0.087; “Scaffold attachment factor B1 I77N, Q15424”: -0.235 ± 0.073; “Scaffold attachment factor B1 I77P, Q15424”: -0.381 ± 0.096. The result for “Scaffold attachment factor B1 I77Q, Q15424” reads -0.262 ± 0.077; that for “Scaffold attachment factor B1 I77R, Q15424”, -0.156 ± 0.055; that for “Scaffold attachment factor B1 I77S, Q15424”, -0.08 ± 0.051. The substance “Scaffold attachment factor B1 I77V, Q15424” showed an abundance fitness of -0.163 ± 0.066.

The substance “Scaffold attachment factor B1 I77W, Q15424” yielded an abundance fitness of -0.119 ± 0.053. Next, “Scaffold attachment factor B1 K45A, Q15424”: -0.013 ± 0.27; “Scaffold attachment factor B1 K45R, Q15424”: 0.218 ± 0.2.

Source of the values: the Human Domainome abundance scans (Beltran et al. 2025).
